# Data reported in patent US20210346432A1 (Memorial Sloan Kettering, published 2021).
# T1: A647 conjugated BCMA-Fc fusion protein (human, UniProt Q02223 1-54, A647 conjugated (site not stated))
# T1 construct: Staining reagent for CAR on T cells; not shown: Fc part
# T1 sequence: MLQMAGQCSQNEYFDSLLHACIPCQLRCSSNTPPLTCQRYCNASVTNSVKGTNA
# T2: mouse BCMA (mouse, UniProt O88472 1-49, limits assumed)
# T2 chain (looked up): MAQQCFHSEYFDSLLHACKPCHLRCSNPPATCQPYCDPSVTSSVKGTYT
# B1: BCMA-targeted 28z CAR24 (other)
# chain: SYELTQPPSASGTPGQRVTMSCSGTSSNIGSHSVNWYQQLPGTAPKLLIYTNNQRPSGVPDRFSGSKSGTSASLAISGLQSEDEADYYCAAWDGSLNGLVFGGGTKLTVLGSRGGGGSGGGGSGGGGSLEMAEVQLVQSGAEVKKPGESLKISCKGSGYSFTSYWIGWVRQMPGKGLEWMGIIYPGDSDTRYSPSFQGHVTISADKSISTAYLQWSSLKASDTAMYYCARYSGSFDNWGQGTLVTVSSIEVMYPPPYLDNEKSNGTIIHVKGKHLCPSPLFPGPSKPFWVLVVVGGVLACYSLLVTVAFIIFWVRSKRSRLLHSDYMNMTPRRPGPTRKHYQPYAPPRDFAAYRSRVKFSRSADAPAYQQGQNQLYNELNLGRREEYDVLDKRRGRDPEMGGKPRRKNPQEGLYNELQKDKMAEAYSEIGMKGERRRGKGHDGLYQGLSTATKDTYDALHMQALPPR
# notes: Chimeric antigen receptor on transduced human T cells; leader left out; also called BCMA-specific 28z CAR24
# B2: ET140-201 (scFv)
# scFv: QPVLTQPPSASASLGASVTLTCTLSSGYSNYKVDWYQQRPGKGPRFVMRVGTGGIVGSKGDGIPDRFSVLGSGLNRYLTIKNIQEEDEGDYHCGADHGSGSNFVYVFGTGTKVTVLGSRGGGGSGGGGSGGGGSLEMAQVQLQESGPGLVKPSGTLSLTCGVSGGSISNSNWWSWVRQPPGKGLEWIGEIYHSGSTKYNPSLRSRVTISVDKSKNQFSLKLSSVTAADTAVYYCARRDNWKTPTTKIDGFDIWGQGTMVTVSS
# notes: also called ET140-201 scFv; ET140-51 scFv
# B3: ET140-207 (scFv)
# scFv: QPVLTQPPSASASLGASVTLTCTLSSGYSNYKVDWYQQRPGKGPRFLMRVDTGGIVGSKGDGIPDRFSVSGSGLNRYLTIKNIQEEDESDYHCGADHGSGSNFVWVFGGGTKLTVLGSRGGGGSGGGGSGGGGSLEMAQVQLVQSGAEVKKPGSSVKVSCKASGGTFSSYAISWVRQAPGQGLEWMGGIIPIFSTANYAQKFQGRVTMTTDTSTSTAYMELRSLRSDDTAVYYCARQPWTWYSPYDQWGQGTLVTVSS
# notes: also called ET140-207 scFv; ET140-57 scFv
# B4: ET140-172 (scFv)
# scFv: QSVVTQPPSVSGAPGQRVTISCSGSSSNIGARYDVQWYQQLPGTAPKLLIFGNNNRPSGVPDRFSGSKSGTSASLAITGLQAEDEADYYCQSYDSSLSASVFGGGTKLTVLGSRGGGGSGGGGSGGGGSLEMAEVQLVQSGAEVKKPGASVKVSCKASGYTFTSYYMHWVRQAPGQGLEWMGIINPSGGSTSYAQKFQGRVTMTRDTSTSTVYMELSSLRSEDTAVYYCARSQWGGVLDYWGQGTLVTVSS
# notes: also called ET140-172 scFv; ET140-22 scFv
# B5: ET140-204 (scFv)
# scFv: QSALTQPASVSASPGQSIAISCTGTSSDVGWYQQHPGKAPKLMIYEDSKRPSGVSNRFSGSKSGNTASLTISGLQAEDEADYYCSSNTRSSTLVFGGGTKLTVLGSRGGGGSGGGGSGGGGSLEMAEVQLVQSGAEMKKPGASLKLSCKASGYTFIDYYVYWMRQAPGQGLESMGWINPNSGGTNYAQKFQGRVTMTRDTSISTAYMELSRLRSDDTAMYYCARSQRDGYMDYWGQGTLVTVSS
# notes: also called ET140-204 scFv; ET140-54 scFv
# B6: ET140-174 (scFv)
# scFv: SYELTQPPSASGTPGQRVTMSCSGTSSNIGSHSVNWYQQLPGTAPKLLIYTNNQRPSGVPDRFSGSKSGTSASLAISGLQSEDEADYYCAAWDGSLNGLVFGGGTKLTVLGSRGGGGSGGGGSGGGGSLEMAEVQLVQSGAEVKKPGESLKISCKGSGYSFTSYWIGWVRQMPGKGLEWMGIIYPGDSDTRYSPSFQGHVTISADKSISTAYLQWSSLKASDTAMYYCARYSGSFDNWGQGTLVTVSS
# notes: also called ET140-174 scFv; ET140-24 scFv
# B7: ET140-196 (scFv)
# scFv: QAVLTQPPSASGTPGQRVTISCSGSSSNIGSYTVSWYQQLPGTAPKFLIYSNNQRPSGVPDRFSGSKSGTSASLAISGLQSEDEADYYCAAWDDSLNGYVFGTGTKVTVLGSRGGGGSGGGGSGGGGSLEMAEVQLVQSGAEVKKPGESLKISCKGSGYDFTTYWIGWVRQMPGKGLEWMGIIYPGDSDTRYSPSVRGRVTISADKSINTAYLQWSSLEASDTAMYYCARMWTFSQDGWGQGTLVTVSS
# notes: also called ET140-196 scFv; ET140-46 scFv
# B8: ET140-188 (scFv)
# scFv: SYVLTQPPSASGTPGQRVTISCSGSSSNIGSNTVNWYQQVPGTAPKLLIYSNNQRPSGVPDRFSGSKSGASASLAISWLQSEDEADYYCAAWDDSLNGWVFGGGTKLTVLGSRGGGGSGGGGSGGGGSLEMAQMQLVQSGAEVKKPGASVKVSCKASGYTFTGYYVHWLRQAPGQGLEWMGWINPNSGGTNNAQEFQGRITMTRDTSINTAYMELSRLRSDDTAVYYCARSQWGGTYDYWGQGTLVTVSS
# notes: also called ET140-188 scFv; ET140-38 scFv
# Target: T1, A647 conjugated BCMA-Fc fusion protein
# Test: flow cytometry, A647 conjugated BCMA-Fc on CAR-transduced human T cells
# Procedure: Human T cells (unselected (CD4 and CD8) human T cells from a healthy donor) were transduced with retrovirus in order to express each of these BCMA-targeted CARs such that the T cells expressed these BCMA-targeted 28z CARs. The cell surface expression of BCMA-targeted CARs on human T cells was determined via binding A647 conjugated BCMA-Fc fusion protein.
row,binding result,Binder
1,binds,B1

# Target: T2, mouse BCMA
# Test: ELISA (OD450), single point, coats human BCMA, mouse BCMA, blank
row,binding result,Binder
1,no binding,B2
2,no binding,B3
3,no binding,B4
4,no binding,B5
5,no binding,B6
6,no binding,B7
7,no binding,B8
